Test results as given in US20240132603A1 (HARBOUR BIOMED US, published 2024).

Assays:
human CCR8 [1] = target: T1, human CCR8 (human, UniProt P51685 1-355); assay: FACS, CHO-K1-hCCR8 cells
T1 construct: whole, on cells; construct used for the overexpressing cell lines is not described; also called hCCR8
Summary of the method: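 Readout: FACS signal of cell-bound antibody. Staining used a 200 nM top concentration with 5-fold dilutions in 2% FBS buffer, 1 h at 4 °C, then secondary antibody for 40 min.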

cynomolgus monkey CCR8 = target: T2, cynomolgus monkey CCR8 (cynomolgus monkey, UniProt G7NYJ2 1-355); assay: FACS, CHO-K1-CynoCCR8 cells
T2 construct: whole, on cells; also called CynoCCR8
T2 sequence (G7NYJ2 entry or part of it): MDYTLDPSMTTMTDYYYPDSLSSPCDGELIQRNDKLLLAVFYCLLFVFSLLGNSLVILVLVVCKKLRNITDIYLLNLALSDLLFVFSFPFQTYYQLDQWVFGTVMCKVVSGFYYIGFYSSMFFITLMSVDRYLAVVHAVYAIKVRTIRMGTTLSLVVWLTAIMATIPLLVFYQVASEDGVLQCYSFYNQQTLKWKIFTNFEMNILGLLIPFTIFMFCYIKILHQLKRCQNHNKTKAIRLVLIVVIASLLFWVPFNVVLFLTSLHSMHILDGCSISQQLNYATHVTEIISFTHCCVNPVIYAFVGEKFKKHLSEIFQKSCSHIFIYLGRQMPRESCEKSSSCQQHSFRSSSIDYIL
Summary of the method: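 Anti-CCR8 antibodies titrated in 5-fold steps from 200 nM onto 1E6 cells/mL CHO-K1-CynoCCR8 in DPBS/2% FBS, 1 h at 4 °C. Bound antibody detected with 1:1000 secondary antibody, 40 min at 4 °C, then flow cytometry.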

CD40LG = target: T3, CD40LG (UniProt P29965 1-261); assay: flow cytometry, HEK293-CD40LG cells
T3 construct: whole, on cells; also called HEK293-CD40LG
T3 sequence (looked up): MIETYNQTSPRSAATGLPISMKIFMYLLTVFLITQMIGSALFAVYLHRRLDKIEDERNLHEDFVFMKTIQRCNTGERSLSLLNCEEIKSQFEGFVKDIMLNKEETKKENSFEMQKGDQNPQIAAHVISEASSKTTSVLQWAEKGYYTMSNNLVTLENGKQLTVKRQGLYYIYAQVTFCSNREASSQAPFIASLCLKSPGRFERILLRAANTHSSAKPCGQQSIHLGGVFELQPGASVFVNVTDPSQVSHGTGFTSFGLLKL

human CCR8 [2] = target: T1, human CCR8; assay: KinExA, cell line overexpressing human CCR8; human CCR8 cell line
Description: To 200 mg of PMMA hard beads was added 30 μg of Goat Anti-Human IgG Fc antibody, and the mixture was supplemented with a coating solution to 1.0 mL, with a buffer composition of 1×PBS, pH7.4, to ensure that the beads were completely suspended in the solution. After being spun at room temperature for 2 h, the beads were either allowed to settle naturally or centrifuged briefly at low speed, and the supernatant was removed. 1 mL of blocking buffer (1×PBS, pH7.4, containing 10 mg/mL BSA) was added to ensure that the beads were resuspended in the blocking solution, and the beads were spun at room temperature for 1 h. An appropriate concentration of PR005565, PR006155 or PR006166 was used as the 100% signal value, and PBS blank was used as the background value. The net signal values were detected using 0.5 μg/mL Alexa Fluor® 647 Goat Anti-Human IgG. The cell line overexpressing human or monkey CCR8 was collected by centrifugation at 1500 g for 5 min, washed 2 times with 2 PBS and centrifuged at 350 g. The cells were collected in a 1.5 mL centrifuge tube. 10 mL of 0.2 nM PR005565, PR006155 or PR006166 solution was prepared. The total cells were supplemented with 0.2 nM PR005565, PR006155 or PR006166 solution to 0.82 mL, and diluted in a 2-fold gradient with 0.2 nM PR005565, PR006155 or PR006166 as a buffer. […]

MMP16 = target: T4, MMP16 (UniProt P51512 120-607); assay: flow cytometry, HEK293-MMP16 cells
T4 construct: whole, on cells; also called HEK293-MMP16
T4 sequence (P51512 120-607): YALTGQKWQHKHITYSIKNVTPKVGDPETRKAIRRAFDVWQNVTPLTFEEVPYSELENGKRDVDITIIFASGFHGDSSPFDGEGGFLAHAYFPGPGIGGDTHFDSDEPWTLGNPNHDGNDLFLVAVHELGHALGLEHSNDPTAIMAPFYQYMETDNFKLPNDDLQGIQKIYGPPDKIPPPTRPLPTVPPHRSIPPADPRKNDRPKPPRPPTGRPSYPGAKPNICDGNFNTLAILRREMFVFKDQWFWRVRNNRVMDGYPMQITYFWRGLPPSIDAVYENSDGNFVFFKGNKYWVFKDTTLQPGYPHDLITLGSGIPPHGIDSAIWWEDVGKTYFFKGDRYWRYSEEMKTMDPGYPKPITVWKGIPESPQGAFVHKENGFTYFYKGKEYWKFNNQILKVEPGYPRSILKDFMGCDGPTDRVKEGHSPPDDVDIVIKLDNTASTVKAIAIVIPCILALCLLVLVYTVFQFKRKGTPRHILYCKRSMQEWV

T1 sequence (P51685 whole entry): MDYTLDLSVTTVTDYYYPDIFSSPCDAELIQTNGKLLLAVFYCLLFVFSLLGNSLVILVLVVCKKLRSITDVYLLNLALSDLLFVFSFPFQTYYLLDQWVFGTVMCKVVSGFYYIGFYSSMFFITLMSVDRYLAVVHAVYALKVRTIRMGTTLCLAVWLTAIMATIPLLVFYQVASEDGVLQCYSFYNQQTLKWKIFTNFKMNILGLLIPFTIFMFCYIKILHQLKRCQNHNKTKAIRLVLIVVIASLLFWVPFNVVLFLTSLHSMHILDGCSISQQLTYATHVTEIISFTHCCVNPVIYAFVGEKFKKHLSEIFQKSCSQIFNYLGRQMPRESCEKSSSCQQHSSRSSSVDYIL

B1: PR005565 (antibody, human IgG1, kappa)
heavy: not shown
light: DIVMTQSPLSLPVTLGQPASISCRSSKSLLHSNAKIYLYWFQQRPGQSPRLLIYRMSNLASGVPDRFSGSGSGTDFTLKISRVEAEDVGVYYCMQHLEYPLTFGQGTKLEIKRTVAAPSVFIFPPSDEQLKSGTASVVCLLNNFYPREAKVQWKVDNALQSGNSQESVTEQDSKDSTYSLSSTLTLSKADYEKHKVYACEVTHQGLSSPVTKSFNRGEC
notes: IgG1 constant region; same VH/VL as PR004666
B1 gave an EC50 (human CCR8 [1]) of 0.42 nM, an EC50 (cynomolgus monkey CCR8) of 0.76 nM and an MFI (CD40LG) of 241. For the same binder, the Kd (human CCR8 [2]) was 0.13 nM and the MFI (MMP16) was 146.
